Tests used:
factor X = factor X (UniProt P00742)
factor Xa = factor Xa (UniProt P00742)

daboxin P, sequence (C0HK16 whole entry): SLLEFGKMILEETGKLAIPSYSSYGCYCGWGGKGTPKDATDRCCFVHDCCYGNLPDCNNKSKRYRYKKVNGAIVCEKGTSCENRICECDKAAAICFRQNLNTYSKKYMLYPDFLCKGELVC

| Substance | residual activity of ETC treated with alkylated daboxin P (3 uM) (factor X) | residual activity of ITC treated with alkylated daboxin P (3 uM) (factor X) | IC50 of inhibition of FXa generation by the extrinsic tenase complex (ETC), in the presence of phospholipids, chromogenic substrate S-2222 (factor X) | IC50 of inhibition of FXa generation by the intrinsic tenase complex (ITC), in the presence of phospholipids, chromogenic substrate S-2222 (factor X) | residual activity of ETC (with phospholipids) upon treatment with 3 uM of daboxin P (factor X) | residual activity of ETC reconstituted without phospholipid, treated with daboxin P (factor X) | residual activity of ITC (with phospholipids) upon treatment with 3 uM of daboxin P (factor X) | residual activity of ITC reconstituted without phospholipid, treated with daboxin P (factor X) | residual activity of the prothrombinase complex (thrombin formation, S-2238) when daboxin P was pre-incubated with FXa followed by addition of FVa (factor Xa) |
| --- | --- | --- | --- | --- | --- | --- | --- | --- | --- |
| alkylated daboxin P (enzyme) | 23% | 19% | – | – | – | – | – | – | – |
| daboxin P (enzyme) | – | – | 0.43 nM | 39.2 nM | 9.05% | 25% | 2.8% | 20.1% | 11.3% |

Reference: article PMC4835082
